Experimental data as given in patent US20160090425.

Target: six other anti-C1s binding antibodies

B1: human C1s enzyme purified from human plasma (Complement Technology Inc., Cat # A103) (protein)
chain: EPTMYGEILSPNYPQAYPSEVEKSWDIEVPEGYGIHLYFTHLDIELSENCAYDSVQIISGDTEEGRLCGQRSSNNPHSPIVEEFQVPYNKLQVIFKSDFSNEERFTGFAAYYVATDINECTDFVDVPCSHFCNNFIGGYFCSCPPEYFLHDDMKNCGVNCSGDVFTALIGEIASPNYPKPYPENSRCEYQIRLEKGFQVVVTLRREDFDVEAADSAGNCLDSLVFVAGDRQFGPYCGHGFPGPLNIETKSNALDIIFQTDLTGQKKGWKLRYHGDPMPCPKEDTPNSVWEPAKAKYVFRDVVQITCLDGFEVVEGRVGATSFYSTCQSNGKWSNSKLKCQPVDCGIPESIENGKVEDPESTLFGSVIRYTCEEPYYYMENGGGGEYHCAGNGSWVNEVLGPELPKCVPVCGVPREPFEEKQRIIGGSDADIKNFPWQVFFDNPWAGGALINEYWVLTAAHVVEGNREPTMYVGSTSVQTSRLAKSKMLTPEHVFIHPGWKLLEVPEGRTNFDNDIALVRLKDPVKMGPTVSPICLPGTSSDYNLMDGDLGLISGWGRTEKRDRAVRLKAARLPVAPLRKCKEVKVEKPTADAEAYVFTPNMICAGGEKGMDSCKGDSGGAFAVQDPNDKTKFYAAGLVSWGPQCGTYGLYTRVKNYVDWIMKTMQENSTPRED
With B1 the “C1s-mediated C4 α-chain cleavage (SDS gel), antibody at approximately 10-fold molar excess” value was “six other anti-C1s binding antibodies, including the C1s binding antibody 3F8 (see FIG. 1, Example 2), did not show inhibitory activity”.
